The results in this text go back to patent US20180155451A1 (published 2018).

The target in experiment [1] is T1, FcgRIa extracellular domain with C-terminal His tag (human, UniProt P12314 16-292).
T1 construct: extracellular domain; Expressed in FreeStyle293 cells; used as analyte in Biacore; also called FcγRIa; FcγRI; not shown: His tag attached to the C terminus
Briefly: SPR (Biacore), antibody captured on chip, FcγR extracellular domain as analyte, kinetic analysis. The method, then:
(§1) Analysis of interaction between obj ective antibody and the FcγR was carried out using Biacore T100 (GE Healthcare), Biacore T200, Biacore A100, and Biacore 4000. HBS-EP+ (GE Healthcare) was used as the running buffer, and the measurement temperature was set to 25° C. Chips produced by immobilizing the antigen peptide by the amine coupling method to a Series S sensor Chip CM5 (GE Healthcare), chips produced by allowing preliminarily biotinylated antigen peptides to interact with and immobilize onto a Series S Sensor Chip SA (certified) (GE Healthcare), chips produced by immobilizing Protein L (ACTIGEN, BioVision) to Series S Sencor Chip CM5 (GE Healthcare), or chips produced by immobilizing Protein A/G (Thermo Scientific) to Series S Sencor Chip CM5 (GE Healthcare) were used. Antibodies of interest were captured onto these chips, and allowed to interact to each FcγR diluted with running buffer. To regenerate and repeatedly use the chip, the antibodies captured onto the chip were washed off by reacting 10 mM glycine-HCl, pH 1.5.

Experiment [2] deals with T2, FcgRIIa R extracellular domain with C-terminal His tag (human, UniProt P12318 34-217).
T2 construct: extracellular domain; also called FcγRIIa R; FcγRIIa type R; not shown: His tag attached to the C terminus
T2 sequence (looked up): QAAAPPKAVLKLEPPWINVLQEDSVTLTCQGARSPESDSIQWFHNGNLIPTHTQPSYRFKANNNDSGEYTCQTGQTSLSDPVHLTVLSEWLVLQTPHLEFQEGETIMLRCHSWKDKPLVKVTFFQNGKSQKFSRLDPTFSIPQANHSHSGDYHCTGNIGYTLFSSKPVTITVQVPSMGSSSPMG
Described as above. The procedure:
as §1

Experiment [3] has as its target T3, FcgRIIa H extracellular domain with C-terminal His tag (human, UniProt P12318 34-217).
T3 construct: extracellular domain; also called FcγRIIa H; FcγRIIa type H; not shown: His tag attached to the C terminus
T3 sequence (looked up): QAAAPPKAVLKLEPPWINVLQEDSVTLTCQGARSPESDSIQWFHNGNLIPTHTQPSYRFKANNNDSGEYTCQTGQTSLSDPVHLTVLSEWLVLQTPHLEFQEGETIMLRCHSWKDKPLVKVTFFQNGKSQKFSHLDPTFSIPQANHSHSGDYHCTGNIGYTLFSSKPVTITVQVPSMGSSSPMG
The description is as above. The procedure: as §1

Experiment [4] concerns the target T4, FcgRIIb extracellular domain with C-terminal His tag (human, UniProt P31994 43-217).
T4 construct: extracellular domain; also called FcγRIIb; not shown: His tag attached to the C terminus
T4 sequence (looked up): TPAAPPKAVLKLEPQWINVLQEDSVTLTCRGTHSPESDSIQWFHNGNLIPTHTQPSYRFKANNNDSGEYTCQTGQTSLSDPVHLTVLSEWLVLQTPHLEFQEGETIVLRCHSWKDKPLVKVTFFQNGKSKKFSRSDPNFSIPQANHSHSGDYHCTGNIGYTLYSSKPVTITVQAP
Described as above. The procedure: as §1

In experiment [5] the target is T5, FcgRIIIa F extracellular domain with C-terminal His tag (human, UniProt P08637 17-208).
T5 construct: extracellular domain; also called FcγRIIIa F; FcγRIIIa (F158); not shown: His tag attached to the C terminus
The description is as above. The method, then: as §1

For experiment [6], the target named is T6, FcgRIIIa V extracellular domain with C-terminal His tag (human, UniProt P08637 17-208).
T6 construct: extracellular domain; also called FcγRIIIa V; FcγRIIIa (V158); not shown: His tag attached to the C terminus
The experiment is described as above. The method, then: as §1

The target in experiment [7] is T7, FcgRIa (human, UniProt P12314 16-292).
T7 construct: extracellular domain; Expressed in FreeStyle293 cells and purified; used as analyte in Biacore; also called FcγRIa; FcγRI; not shown: His tag attached to the C terminus
The experiment is described as follows: SPR (Biacore), antibody captured on chip, FcgR extracellular domain as analyte. The procedure: as §1
On the technique in general: SPR reads the build-up and loss of mass on a sensor chip optically.

The target in experiment [8] is T8, FcgRIIa R (human, UniProt P12318 34-217).
T8 construct: extracellular domain; also called FcγRIIa R; FcγRIIa type R; not shown: His tag attached to the C terminus
T8 sequence (looked up): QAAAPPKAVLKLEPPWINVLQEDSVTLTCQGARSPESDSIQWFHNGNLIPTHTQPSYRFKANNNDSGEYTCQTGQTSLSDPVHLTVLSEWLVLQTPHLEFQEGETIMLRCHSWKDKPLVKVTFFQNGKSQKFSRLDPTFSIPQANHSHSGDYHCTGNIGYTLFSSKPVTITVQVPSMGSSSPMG
The description is as above. The method, then: as §1

For experiment [9], the target named is T9, FcgRIIa H (human, UniProt P12318 34-217).
T9 construct: extracellular domain; also called FcγRIIa H; FcγRIIa type H; not shown: His tag attached to the C terminus
T9 sequence (looked up): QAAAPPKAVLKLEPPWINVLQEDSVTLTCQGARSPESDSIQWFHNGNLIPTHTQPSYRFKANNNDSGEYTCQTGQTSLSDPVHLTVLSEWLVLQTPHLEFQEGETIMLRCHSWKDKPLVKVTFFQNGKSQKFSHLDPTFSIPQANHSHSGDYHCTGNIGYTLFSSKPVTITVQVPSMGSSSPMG
Described as above. The method, then: as §1

The target in experiment [10] is T10, FcgRIIb (human, UniProt P31994 43-217).
T10 construct: extracellular domain; Expressed in FreeStyle293 cells and purified; used as analyte in Biacore; also called FcγRIIb; CD32B; not shown: His tag attached to the C terminus
T10 sequence (looked up): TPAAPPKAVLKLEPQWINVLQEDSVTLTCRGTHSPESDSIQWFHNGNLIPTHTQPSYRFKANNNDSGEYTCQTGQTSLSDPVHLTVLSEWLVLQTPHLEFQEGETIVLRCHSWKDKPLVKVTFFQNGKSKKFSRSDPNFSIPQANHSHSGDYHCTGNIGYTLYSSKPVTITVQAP
Described as above. The procedure:
as §1

Experiment [11] addresses T11, FcgRIIIa F (human, UniProt P08637 17-208).
T11 construct: extracellular domain; also called FcγRIIIa F; not shown: His tag attached to the C terminus
Described as above. The procedure:
as §1

For experiment [12], the target named is T12, FcgRIIIa V (human, UniProt P08637 17-208).
T12 construct: extracellular domain; also called FcγRIIIa V; not shown: His tag attached to the C terminus
The description is as above. The method, then:
as §1

T6 sequence (P08637 17-208 F176V): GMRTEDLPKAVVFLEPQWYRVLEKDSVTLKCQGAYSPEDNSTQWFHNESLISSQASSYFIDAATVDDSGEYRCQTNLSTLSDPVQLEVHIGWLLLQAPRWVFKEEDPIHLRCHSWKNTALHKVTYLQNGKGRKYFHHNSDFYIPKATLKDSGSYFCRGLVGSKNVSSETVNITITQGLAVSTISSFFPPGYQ
T5 sequence (P08637 17-208): as the sequence (P08637 17-208 F176V) above, with V160F counted along it
T1 sequence (P12314 16-292): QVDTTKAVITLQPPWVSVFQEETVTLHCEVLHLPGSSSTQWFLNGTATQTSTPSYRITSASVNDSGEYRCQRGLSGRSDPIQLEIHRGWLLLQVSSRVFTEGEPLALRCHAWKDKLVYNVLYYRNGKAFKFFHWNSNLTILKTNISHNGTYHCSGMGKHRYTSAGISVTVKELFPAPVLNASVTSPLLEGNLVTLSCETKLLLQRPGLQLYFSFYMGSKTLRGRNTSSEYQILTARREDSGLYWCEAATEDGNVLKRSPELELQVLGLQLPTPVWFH
T12 sequence (P08637 17-208 F176V limits assumed): as the sequence (P08637 17-208 F176V) above
T11 sequence (P08637 17-208): as the sequence (P08637 17-208 F176V) above, with V160F counted along it
T7 sequence (P12314 16-292): as the sequence (P12314 16-292) above

B1: H240-Kn033/H240-Hl033/L73-k0 (antibody, human IgG1, kappa)
heavy 1: not shown
heavy 2: not shown
light: DIQMTQSPSSLSASVGDRVTITCRASQDIHKYIAWYQQKPGQAPRLLIQYTSTLQPGVPSRFSGSGSGTDYTFTISSLQPEDIATYYCLQYEQLRTFGGGTKVEIKRTVAAPSVFIFPPSDEQLKSGTASVVCLLNNFYPREAKVQWKVDNALQSGNSQESVTEQDSKDSTYSLSSTLTLSKADYEKHKVYACEVTHQGLSSPVTKSFNRGEC
notes: Knobs-into-holes only (control)
As a reminder, the Kd is the constant that tells how readily two partners part at equilibrium. Consider B1, for which the Kd in experiment [1] stood at 0.25 nM; in [2] it was 1000 nM; in experiment [3], 930 nM; in experiment [4] it was 4100 nM; in [5], 2600 nM; in experiment [6] it was 390 nM.

B2: H240-Kn061/H240-Hl071/L73-k0 (antibody, human IgG1, kappa)
heavy 1: QDQLVQSGAEVKKPGASVKVSCKASGFNIKDTYIQWVRQAPGQGLEWMGRIDPLRKQTKYREKFEGRVTITADTSTNTAYMELSSLRSEDTAVYYCVRSGREFDYWGQGTLVTVSSASTKGPSVFPLAPSSKSTSGGTAALGCLVKDYFPEPVTVSWNSGALTSGVHTFPAVLQSSGLYSLSSVVTVPSSSLGTQTYICNVNHKPSNTKVDKKVEPKSCDKTHTCPPCPAPEYYWGPSVFLFPPKPKDTLMISRTPEVTCVVVDVSDEDPEVKFNWYVDGVEVHNAKTKPREEQYNATYRVVSVLTVLHQDWLNGKEYKCKVSNKALPAPIEKTISKAKGQPREPQVCTLPPSRDELTKNQVSLWCLVKGFYPSDIAVEWESNGQPENNYKTTPPVLDSDGSFFLYSKLTVDKSRWQQGNVFSCSVMHEALHNHYTQKSLSLSP
heavy 2: QDQLVQSGAEVKKPGASVKVSCKASGFNIKDTYIQWVRQAPGQGLEWMGRIDPLRKQTKYREKFEGRVTITADTSTNTAYMELSSLRSEDTAVYYCVRSGREFDYWGQGTLVTVSSASTKGPSVFPLAPSSKSTSGGTAALGCLVKDYFPEPVTVSWNSGALTSGVHTFPAVLQSSGLYSLSSVVTVPSSSLGTQTYICNVNHKPSNTKVDKKVEPKSCDKTHTCPPCPAPELLGGPSVFLFPPKPKDTLMISRTPEVTCVVVDVSHEDPEVKFNWYVDGVEVHNAKTKPREEQYNSTYRVVSVLTVLHQDWLNGKEYKCKVSNDALPMPIEETISKAKGQPREPQVYTLPPSRCELTKNQVSLSCAVKGFYPSDIAVEWESNGQPENNYKTTPPVLDSDGSFFLVSKLTVDKSRWQQGNVFSCSVMHEALHNHYTQKSLSLSP
light: DIQMTQSPSSLSASVGDRVTITCRASQDIHKYIAWYQQKPGQAPRLLIQYTSTLQPGVPSRFSGSGSGTDYTFTISSLQPEDIATYYCLQYEQLRTFGGGTKVEIKRTVAAPSVFIFPPSDEQLKSGTASVVCLLNNFYPREAKVQWKVDNALQSGNSQESVTEQDSKDSTYSLSSTLTLSKADYEKHKVYACEVTHQGLSSPVTKSFNRGEC
notes: Heterodimerized anti-EREG IgG1: L234Y/L235Y/G236W/H268D/S298A in Kn061, K326D/A330M/K334E in Hl071
B2: the Kd in experiment [7] was found to be 0.14 nM; in experiment [8], 350 nM; in [9], 280 nM; in [10], 1200 nM; in experiment [11], 5.1 nM; in experiment [12] it was 1.8 nM.

B3: H240-afucosyl_G1d/L73-k0 (antibody, human IgG1, kappa)
heavy: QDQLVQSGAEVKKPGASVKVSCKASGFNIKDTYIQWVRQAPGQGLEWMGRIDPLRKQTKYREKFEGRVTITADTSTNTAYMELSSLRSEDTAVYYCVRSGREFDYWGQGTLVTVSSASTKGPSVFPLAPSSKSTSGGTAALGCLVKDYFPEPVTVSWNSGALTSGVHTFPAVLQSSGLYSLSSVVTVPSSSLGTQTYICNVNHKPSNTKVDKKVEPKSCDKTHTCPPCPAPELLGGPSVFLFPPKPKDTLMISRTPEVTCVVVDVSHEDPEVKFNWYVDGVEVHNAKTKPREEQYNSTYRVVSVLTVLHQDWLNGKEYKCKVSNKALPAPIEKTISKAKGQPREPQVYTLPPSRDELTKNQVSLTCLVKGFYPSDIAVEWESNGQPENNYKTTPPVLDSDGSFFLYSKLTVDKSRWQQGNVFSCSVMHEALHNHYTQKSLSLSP
light: DIQMTQSPSSLSASVGDRVTITCRASQDIHKYIAWYQQKPGQAPRLLIQYTSTLQPGVPSRFSGSGSGTDYTFTISSLQPEDIATYYCLQYEQLRTFGGGTKVEIKRTVAAPSVFIFPPSDEQLKSGTASVVCLLNNFYPREAKVQWKVDNALQSGNSQESVTEQDSKDSTYSLSSTLTLSKADYEKHKVYACEVTHQGLSSPVTKSFNRGEC
modifications: fucose removed from the sugar chain (afucosylated)
notes: also called afucosylated antibody
B3: the Kd was found to be 0.43 nM in experiment [1]; 490 nM in [2]; 780 nM in experiment [3]; 2600 nM in [4]; 78 nM in experiment [5]; 6.9 nM in experiment [6].

B4: H240-Kn032/H240-Hl032/L73-k0 (antibody, human IgG1, kappa)
heavy 1: QDQLVQSGAEVKKPGASVKVSCKASGFNIKDTYIQWVRQAPGQGLEWMGRIDPLRKQTKYREKFEGRVTITADTSTNTAYMELSSLRSEDTAVYYCVRSGREFDYWGQGTLVTVSSASTKGPSVFPLAPSSKSTSGGTAALGCLVKDYFPEPVTVSWNSGALTSGVHTFPAVLQSSGLYSLSSVVTVPSSSLGTQTYICNVNHKPSNTKVDKKVEPKSCDKTHTCPPCPAPELLGGPDVFLFPPKPKDTLMISRTPEVTCVVVDVSHEDPEVKFNWYVDGVEVHNAKTKPREEQYNSTYRVVSVLTVLHQDWLNGKEYKCKVSNKALPLPEEKTISKAKGQPREPQVCTLPPSRDELTKNQVSLWCLVKGFYPSDIAVEWESNGQPENNYKTTPPVLDSDGSFFLYSKLTVDKSRWQQGNVFSCSVMHEALHNHYTQKSLSLSP
heavy 2: QDQLVQSGAEVKKPGASVKVSCKASGFNIKDTYIQWVRQAPGQGLEWMGRIDPLRKQTKYREKFEGRVTITADTSTNTAYMELSSLRSEDTAVYYCVRSGREFDYWGQGTLVTVSSASTKGPSVFPLAPSSKSTSGGTAALGCLVKDYFPEPVTVSWNSGALTSGVHTFPAVLQSSGLYSLSSVVTVPSSSLGTQTYICNVNHKPSNTKVDKKVEPKSCDKTHTCPPCPAPELLGGPDVFLFPPKPKDTLMISRTPEVTCVVVDVSHEDPEVKFNWYVDGVEVHNAKTKPREEQYNSTYRVVSVLTVLHQDWLNGKEYKCKVSNKALPLPEEKTISKAKGQPREPQVYTLPPSRCELTKNQVSLSCAVKGFYPSDIAVEWESNGQPENNYKTTPPVLDSDGSFFLVSKLTVDKSRWQQGNVFSCSVMHEALHNHYTQKSLSLSP
light: DIQMTQSPSSLSASVGDRVTITCRASQDIHKYIAWYQQKPGQAPRLLIQYTSTLQPGVPSRFSGSGSGTDYTFTISSLQPEDIATYYCLQYEQLRTFGGGTKVEIKRTVAAPSVFIFPPSDEQLKSGTASVVCLLNNFYPREAKVQWKVDNALQSGNSQESVTEQDSKDSTYSLSSTLTLSKADYEKHKVYACEVTHQGLSSPVTKSFNRGEC
notes: S239D/A330L/I332E in both H chains (called homodimerized)
On to B4, for which the Kd in experiment [1] is 0.073 nM; in experiment [2] it was 340 nM; in [3] it was 690 nM; in experiment [4], 620 nM; in [5] it was 9.1 nM; in [6], 3.1 nM.
